Source: US20170158755A1 (PROTHENA BIOSCIENCES, published 2017)

Biological target: T1, human MCAM-Fc fusion protein (human, UniProt P43121 24-559)
T1 construct: Made in house by fusing the extracellular domain of human MCAM to human IgG1, produced in CHO cells; also called hMCAM-Fc; not shown: human IgG1 (Fc part of the fusion)
T1 sequence: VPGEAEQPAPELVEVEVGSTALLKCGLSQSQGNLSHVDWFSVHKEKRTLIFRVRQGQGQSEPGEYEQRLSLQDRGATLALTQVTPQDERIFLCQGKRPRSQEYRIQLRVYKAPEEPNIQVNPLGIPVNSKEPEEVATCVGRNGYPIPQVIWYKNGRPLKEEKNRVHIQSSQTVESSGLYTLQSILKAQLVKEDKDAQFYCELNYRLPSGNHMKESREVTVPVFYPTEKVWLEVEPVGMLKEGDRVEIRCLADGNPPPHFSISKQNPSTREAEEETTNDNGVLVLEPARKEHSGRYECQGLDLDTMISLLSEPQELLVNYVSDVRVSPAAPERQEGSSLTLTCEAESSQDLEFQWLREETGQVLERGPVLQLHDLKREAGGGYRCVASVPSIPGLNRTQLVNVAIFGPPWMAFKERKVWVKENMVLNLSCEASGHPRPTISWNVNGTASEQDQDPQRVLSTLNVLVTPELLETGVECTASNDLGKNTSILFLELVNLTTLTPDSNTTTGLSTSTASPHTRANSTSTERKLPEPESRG
Assay: ELISA, MCAM-Fc captured via goat anti-human Fab
Description: To determine the LAMA4 epitope(s)/domain(s) necessary for MCAM binding, recombinant MCAM-Fc (or Fc control) protein was prebound to plates via goat anti-human Fabs overnight. Truncated recombinant variants of the LAMA4 G domain (and Tau control protein) were assayed for their ability to bind MCAM-Fc protein as described in the Materials and Methods and as shown in FIG. 6. The results are presented in arbitrary units (A.U.) on the y-axis. […] Therefore, the LG1-3 modules of the G domain of LAMA4 mediate LAMA4-MCAM interactions.

binding result: no binding
B1: His-tagged recombinant LAMA4 G-domain variant with LG modules 4-5 (ligand)
chain: RNSHCHLSNSPRAIEHAYQYGGTANSRQEFEHLKGDFGAKSQFSIRLRTRSSHGMIFYVSDQEENDFMTLFLAHGRLVYMFNVGHKKLKIRSQEKYNDGLWHDVIFIRERSSGRLVIDGLRVLEESLPPTEATWKIKGPIYLGGVAPGKAVKNVQINSIYSFSGCLSNLQLNGASITSASQTFSVTPCFEGPMETGTYFSTEGGYVVLDESFNIGLKFEIAFEVRPRSSSGTLVHGHSVNGEYLNVHMKNGQVIVKVNNGIRDFSTSVTPKQSLCDGRWHRITVIRDSNVVQLDVDSEVNHVVGPLNPKPIDHREPVFVGGVPESLLTPRLAPSKPFTGCIRHFVIDGHPVSFSKAALVSGAVSINSCP
notes: also called LAMA4 variant containing the LG modules 4-5; LG4-5
